Target: T1, RIα-D/D-GFP (Bos taurus, UniProt P00514)
T1 construct: The dimerization/docking (D/D) domain of RIα and full-length RIIα were each fused with green fluorescent protein (GFP); expressed in transfected cells; host or cells: 10T(1/2) cells
Assay: Co-localization of PKA regulatory domain with mitochondria-targeted AKB domain in 10T(1/2) cells (Example 3)
Format: cell-based
Settings: C-terminal 156 residues of D-AKAP2 fused to D-AKAP1 mitochondrial anchoring domain
Excerpt: The 30 amino acid mitochondrial anchoring domain of D-AKAP1 (Chen et al. (1997) J. Biol. Chem., 272:15247-57; and Huang et al. (1997) J. Biol. Chem., 272:8057-8064) was fused to the C-terminal 156 residues of mouse (amino acids 217-372 of SEQ ID NO:55) and human (amino acids 507-662 of SEQ ID NO:64) D-AKAP2, respectively, followed by a Flag-tag and subcloned into pcDNA4 (Invitrogen, Carlsbad, Calif.). The dimerization/docking (D/D) domain of RIα and full-length RIIα were each fused with green fluorescent protein (GFP) and cloned into pEGFPN1 (Clontech, Palo Alto, Calif.). […] The AKB domain was detected by immuno-staining with monoclonal antibodies against the Flag-tag (Kodak, Rochester, N.Y.) followed by rhodamine-conjugated secondary antibody (Jackson Lab, Bar Harbor, Me.). […]
In this assay, the AKB domain within the C-terminal 156 residues of D-AKAP2 from mouse (Val) and human (Ile) was fused to the mitochondrial anchoring domain from D-AKAP1 and tethered to the outer mitochondrial membrane (Chen et al. (1997) J. Biol. Chem., 272:15247-15257; and Huang et al. (1997) J. Biol. Chem., 272:8057-8064). The binding of the AKB domain with the PKA regulatory domains was detected as the co-transfected PKA regulatory domains co-localized to the mitochondria. […]

T1 sequence (P00514 2-135 limits assumed): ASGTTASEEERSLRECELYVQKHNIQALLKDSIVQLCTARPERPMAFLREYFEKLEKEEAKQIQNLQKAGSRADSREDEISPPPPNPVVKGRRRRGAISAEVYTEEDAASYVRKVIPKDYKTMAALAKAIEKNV

targeting of RIα to the mitochondria: decrease in mitochondrial localization | targeting of RIα to the mitochondria (listed as lie variant): unable to target RIα
B1: Ile (646) variant: D-AKAP2 AKB domain with Ile at amino acid 646 (SEQ ID NO:64), tested as GST fusion or mitochondria-targeted fusion construct (protein, listed as Homo sapiens)
chain: MRGAGPSPRQSPRTLRPDPGPAMSFFRRKVKGKEQEKTSDVKSIKASISVHSPQKSTKNHALLEAAGPSHVAINAISANMDSFSSSRTATLKKQPSHMEAAHFGDLGRSCLDYQTQETKSSLSKTLEQVLHDTIVLPYFIQFMELRRMEHLVKFWLEAESFHSTTWSRIRAHSLNTMKQSSLAEPVSPSKKHETTASFLTDSLDKRLEDSGSAQLFMTHSEGIDLNNRTNSTQNHLLLSQECDSAHSLRLEMARAGTHQVSMETQESSSTLTVASRNSPASPLKELSGKLMKSIEQDAVNTFTKYISPDAAKPIPITEAMRNDIIARICGEDGQVDPNCFVLAQSIVFSAMEQEHFSEFLRSHHFCKYQIEVLTSGTVYLADILFCESALFYFSEYMEKEDAVNILQFWLAADNFQSQLAAKKGQYDGQEAQNDAMILYDKYFSLQATHPLGFDDVVRLEIESNICREGGPLPNCFTTPLRQAWTTMEKVFLPGFLSSNLYYKYLNDLIHSVRGDEFLGGNVSPTAPGSVGPPDESHPGSSDSSASQSSVKKASIKILKNFDEAIIVDAASLDPESLYQRTYAGKMTFGRVSDLGQFIRESEPEPDVRKSKGSMFSQAMKKWVQGNTDEAQEELAWKIAKMIVSDIMQQAQYDQPLEKSTKL
modifications: GST or mitochondria-targeting fusion

Source: patent US7432342B2, “Kinase anchor protein muteins, peptides thereof and related documents” (Sequenom, Inc., priority 2002, dated 2008)
